Laboratory results published in patent US8686110B2, “Therapeutic pro-apoptotic BH3-like molecules and methods for generating and/or selecting the same” (The Walter and Eliza Hall Institute of Medical Research, priority 2005, dated 2014).

Molecular target: T1, Mcl-1 (Mus musculus, UniProt P97287)
T1 construct: GST (cleaved yes); made in house; host or cells: E. coli
Test: Phage ELISA (titration and competition) of phage-displayed BH3 domains
Format: binding
Details: Bak BH3 mutants; from Table 4e
From the text: In order to create a FLAG-tagged form of the sequence, an oligonucleotide encoding the FLAG epitope was employed to loop-in the required sequence at the N-terminus of the peptide sequences, already fused to gene 3 as described above, using the Kunkel mutagenesis method (Kunkel et al. Methods Enzymol 204:125-139, 1991). For the alanine scanning constructs and other point mutations of the BimBH3 or other BH3 sequence, oligonucleotides with the desired codon mismatch were employed in Kunkel mutagenesis reactions on the FLAG-BimBH3 or FLAG-BadBH3 template. […]
All ELISA's were performed as described previously (Fairlie et al. J Biol Chem 279:2125-2134, 2004). […] Following washing with PBS/Tween, bound phage were detected using a horseradish peroxidase-conjugated anti-M13 antibody. […]
In an initial assay, the BimBH3 and other BH3 phage were tested for their ability to bind directly to immobilised Bcl-xL and Mcl-1. […] The specificity of the interactions were further assessed using a competition assay in which phage binding to the immobilised protein was competed with the corresponding recombinant protein in solution. The IC50 values obtained are as presented in Table 3 and were very similar to those determined with BimBH3 and BadBH3 synthetic peptides as measured by surface plasmon resonance on a BIAcore instrument (Chen et al. 2005 supra) and using isothermal calorimetry (unpublished data). […]

T1 sequence (P97287 152-308 limits assumed): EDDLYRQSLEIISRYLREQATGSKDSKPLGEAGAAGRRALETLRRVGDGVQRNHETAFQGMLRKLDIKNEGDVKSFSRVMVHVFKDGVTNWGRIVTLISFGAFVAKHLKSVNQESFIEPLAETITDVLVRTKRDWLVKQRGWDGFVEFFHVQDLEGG

“I19A (PSSTMGQVGRQLAIIGDDANRRYDSE) [Bim I19A]” was tested, and the “selectivity among pro-survival proteins, in words” value was “selective for Mcl-1”.

With “V8A (PSSTMGQAGRQLAIIGDDINRRYDSE) [Bim V8A]” the “selectivity among pro-survival proteins, in words” value was “selective for Mcl-1”.
